Earlier results, collected in PMC6323488.

Target: EGFR (Homo sapiens) (UniProt P00533)

For CTGF (from UniProt P29279), the Kd is given as 126 nM.
